PMC4912689, “The Extracellular Surface of the GLP-1 Receptor Is a Molecular Trigger for Biased Agonism” (Cell, 2016)

B1: unnamed (parent)
chain 1: HSQGTFTSDYSKYLDSRRAQDFVQWLMNTKRNRNNIA
chain 2: RPQGATVSLWETVQKWREYRRQCQRSLTEDPPPATDLFCNRTFDEYACWPDGEPGSFVNVSCPWYLPWASSVPQGHVYRFCTAEGLWLQKDNSSLPWRDLSECEESKRGERSSPEEQLLFLYIIYTVGYALSFSALVIASAILLGFRHLHCTRNYIHLNLFASFILRALSVFIKDAALKWMYSTAAQQHQWDGLLSYQDSLSCRLVFLLMQYCVAANYYWLLVEGVYLYTLLAFSVLSEQWIFRLYVSIGWGVPLLFVVPWGIVKYLYEDEGCWTRNSNMNYWLIIRLPILFAIGVNFLIFVRVICIVVSKLKANLMCKTDIKCRLAKSTLTLIPLLGTHEVIFAFVMDEHARGTLRFIKLFTELSFTSFQGLMVAILYCFVNNEVQLEFRKSWERWRLEHLHIQRDSSMKPLKCPTSSLSSGATAGSSMYTATCQASCS

Variants of: B1
Assay: radioligand inhibition binding (competition with 125I-exendin-4(9-39))
Conditions: read off a plot

Which log10 ratio does the source give for chain 2 G354A here?
Its log10 ratio is -0.45 ΔpKi.

chain 2 Q187A was tested. Which log10 ratio did it give?
The log10 ratio was -0.65 ΔpKi.

With chain 2 N277A as the variant, how does the log10 ratio read?
Its log10 ratio is -1.4 ΔpKi.

For chain 2 W180A, which log10 ratio is on record?
Its log10 ratio is -0.15 ΔpKi.

For chain 2 W191A, which log10 ratio is on record?
The log10 ratio was -0.15 ΔpKi.

Which log10 ratio does the source give for chain 2 R276A here?
The log10 ratio was -1.9 ΔpKi.

chain 2 C273A was tested. Which log10 ratio did it give?
The log10 ratio was 0.4 ΔpKi.

With chain 2 L178A as the variant, how does the log10 ratio read?
Its log10 ratio is -0.9 ΔpKi.

Which log10 ratio does the source give for chain 2 D270A here?
Its log10 ratio is -1 ΔpKi.

Which log10 ratio does the source give for chain 2 S278A here?
Its log10 ratio is -0.35 ΔpKi.

chain 2 K265A was tested. Which log10 ratio did it give?
The log10 ratio was -1.4 ΔpKi.

How did the log10 ratio turn out when chain 2 Y268A was run?
Its log10 ratio is -0.45 ΔpKi.

How did the log10 ratio turn out when chain 2 Q198A was run?
Its log10 ratio is 0.15 ΔpKi.

With chain 2 K179A as the variant, how does the log10 ratio read?
The log10 ratio was -0.85 ΔpKi.

Which log10 ratio does the source give for chain 2 L194A here?
Its log10 ratio is -0.15 ΔpKi.

How did the log10 ratio turn out when chain 2 E350A was run?
The log10 ratio was -0.85 ΔpKi.

Which log10 ratio does the source give for chain 2 I263A here?
The log10 ratio was -0.15 ΔpKi.

With chain 2 S196A as the variant, how does the log10 ratio read?
Its log10 ratio is 0.1 ΔpKi.

Which log10 ratio does the source give for chain 2 R357A here?
Its log10 ratio is -0.55 ΔpKi.

Which log10 ratio does the source give for chain 2 R353A here?
Its log10 ratio is -0.35 ΔpKi.

chain 2 V264A was tested. Which log10 ratio did it give?
The log10 ratio was -0.25 ΔpKi.

chain 2 S183A was tested. Which log10 ratio did it give?
Its log10 ratio is 0.1 ΔpKi.

How did the log10 ratio turn out when chain 2 H351A was run?
The log10 ratio was -0.4 ΔpKi.

With chain 2 L356A as the variant, how does the log10 ratio read?
Its log10 ratio is -0.8 ΔpKi.

For chain 2 W274A, which log10 ratio is on record?
The log10 ratio was -0.1 ΔpKi.

With chain 2 Y282A as the variant, how does the log10 ratio read?
Its log10 ratio is -1.9 ΔpKi.

With chain 2 I359A as the variant, how does the log10 ratio read?
The log10 ratio was 0.05 ΔpKi.

Which log10 ratio does the source give for chain 2 Q190A here?
Its log10 ratio is 0.1 ΔpKi.

For chain 2 E271A, which log10 ratio is on record?
The log10 ratio was -0.15 ΔpKi.

For chain 2 N279A, which log10 ratio is on record?
The log10 ratio was -1.4 ΔpKi.

Which log10 ratio does the source give for chain 2 D192A here?
Its log10 ratio is -0.2 ΔpKi.

How did the log10 ratio turn out when chain 2 D199A was run?
Its log10 ratio is -0.25 ΔpKi.

For chain 2 Y266A, which log10 ratio is on record?
Its log10 ratio is 0.1 ΔpKi.

chain 2 D349A was tested. Which log10 ratio did it give?
The log10 ratio was -0.3 ΔpKi.

For chain 2 G262A, which log10 ratio is on record?
The log10 ratio was 0.1 ΔpKi.

For chain 2 T355A, which log10 ratio is on record?
The log10 ratio was -0.55 ΔpKi.

For chain 2 M181A, which log10 ratio is on record?
The log10 ratio was -1.5 ΔpKi.

chain 2 M280A was tested. Which log10 ratio did it give?
The log10 ratio was -0.8 ΔpKi.

With chain 2 L195A as the variant, how does the log10 ratio read?
Its log10 ratio is -0.5 ΔpKi.

How did the log10 ratio turn out when chain 2 L267A was run?
The log10 ratio was -0.4 ΔpKi.

With chain 2 Q188A as the variant, how does the log10 ratio read?
Its log10 ratio is -0.05 ΔpKi.

chain 2 F358A was tested. Which log10 ratio did it give?
Its log10 ratio is -1.1 ΔpKi.

For chain 2 E269A, which log10 ratio is on record?
The log10 ratio was -1.3 ΔpKi.

chain 2 K360A was tested. Which log10 ratio did it give?
Its log10 ratio is -0.9 ΔpKi.

chain 2 Y197A was tested. Which log10 ratio did it give?
Its log10 ratio is -0.3 ΔpKi.

How did the log10 ratio turn out when chain 2 N281A was run?
Its log10 ratio is -0.5 ΔpKi.

For chain 2 T184A, which log10 ratio is on record?
The log10 ratio was -0.05 ΔpKi.

With chain 2 Y182A as the variant, how does the log10 ratio read?
The log10 ratio was -0.3 ΔpKi.

How did the log10 ratio turn out when chain 2 T275A was run?
Its log10 ratio is 0.4 ΔpKi.

For chain 2 E364A, which log10 ratio is on record?
The log10 ratio was -0.5 ΔpKi.

For chain 2 L284A, which log10 ratio is on record?
Its log10 ratio is -0.85 ΔpKi.

For chain 2 F362A, which log10 ratio is on record?
The log10 ratio was -0.15 ΔpKi.

How did the log10 ratio turn out when chain 2 S200A was run?
The log10 ratio was -0.35 ΔpKi.

For chain 2 G272A, which log10 ratio is on record?
The log10 ratio was 0.15 ΔpKi.

chain 2 T363A was tested. Which log10 ratio did it give?
Its log10 ratio is -0.2 ΔpKi.

For chain 2 H189A, which log10 ratio is on record?
Its log10 ratio is 0.2 ΔpKi.

chain 2 L361A was tested. Which log10 ratio did it give?
Its log10 ratio is -0.85 ΔpKi.
